Article PMC5768788

Molecular target: 14-3-3γ (UniProt P61981)
Assay: co-immunoprecipitation and immunoblot
Conditions: reference: wild-type Flag-PP1α; sites S224,T226

Q: For PP1α (from UniProt P62136) S224A/T226A, which “binding against the reference” value is on record?
A: The value was “weaker”.
